Key:
CC(C)C=O = assay: cells, lysate or membranes; conditions: conversion to isobutanol
[1] = substrate: NC(=O)C1=CN([C@@H]2O[C@H](COP(=O)(O)OP(=O)(O)OC[C@H]3O[C@@H](n4cnc5c(N)ncnc54)[C@H](O)[C@@H]3O)[C@@H](O)[C@H]2O)C=CC1; assay: KARI cuvette assay, purified Ec_IlvC^Q110V-his6; type: biochemical, E. coli
Experimental: (§1) KARI cuvette assay: KARI activity was assayed kinetically by monitoring the decrease in NAD(P)H concentration by measuring the absorbance at 340 nm. A reaction buffer was prepared containing 250 mM potassium phosphate pH 7, 1 mM DTT and 10 mM MgCl2. Cell pellets were resuspended (0.25 g wet weight/mL buffer) in 250 mM potassium phosphate (KPi) buffer containing 1 mM DTT and 10 mM MgCl2. The resuspended cells were lysed by sonication for 1 min with a 50% duty cycle and pelleted at 11000×g and 4° C. for 15 min. A reaction mixture consisting of 910 μl reaction buffer, 50 μl acetolactate, and 20 μl lysate was prepared in a cuvette. The reaction was initiated by addition of 20 μL of 10 mM NAD(P)H. A substrate free control was conducted using reaction buffer without the addition of acetolactate.
(§2) Purification of KARI: Cell pellets used for purification were resuspended in purification buffer A (20 mM Tris, 20 mM imidazol, 100 mM NaCl, 10 mM MgCl2, pH 7.4). KARI was purified by IMAC (Immobilized metal affinity chromatography) over a 1 ml Histrap High Performance (histrap HP) column pre-charged with Nickel (GE Healthcare) using an Akta FPLC system (GE Healthcare). […]

[2] = substrate: CC(C)C=O; assay: Alcohol dehydrogenase kinetic assay, Dm_Adh; type: biochemical, Drosophila melanogaster; conditions: conversion to isobutanol
Experimental: (§3) E. coli strain GEVO1745 was transformed by electroporation with one of plasmids pGV1705-A, pGV1748-A, pGV1749-A, or pGV1778-A. 50 mL of TB medium (23.1 g/L KH2PO4, 125.4 g/L K2HPO4, 12 g/L Bacto-tryptone, 24 g/L yeast extract, 4 ml/L glycerol) were inoculated to an initial OD600 of 0.2 using a 3 mL overnight LB culture of a single colony. The 50 mL culture was allowed to grow for 3-4 hrs at 250 rpm and 37° C. Protein expression was induced at an OD600 of 2-2.5 by the addition of IPTG to a final concentration of 1 mM. After the addition of IPTG, protein expression was allowed to continue for 20-24 hours at 225 rpm and 25° C.
(§4) Alcohol dehydrogenase (ADH) activity was assayed kinetically by monitoring the decrease in NAD(P)H concentration by measuring the absorbance at 340 nm. A reaction buffer was prepared containing 0.1 M potassium phosphate, 0.4 mM NAD(P)H, 10 mM isobutyraldehyde, 1 mM DTT, and 1 mM PMSF. Cell pellets were resuspended in 0.1 M potassium phosphate buffer containing 1 mM DTT and 1 mM PMSF at one fifth of the culture volume, i.e. 10 mL resuspension buffer for cell pellet from a 50 mL culture. The resuspended cells were lysed by sonication for 1 min with a 50% duty cycle. The reaction was initiated by the addition of 0.5 mL of the reaction buffer to 0.5 mL of clarified lysate in a cuvette. […]

[3] = substrate: CC(C)C=O; assay: Alcohol dehydrogenase kinetic assay, Ec_FucO; type: biochemical, E. coli; conditions: conversion to isobutanol
Experimental: as §3, §4

[4] = substrate: NC(=O)C1=CN([C@@H]2O[C@H](COP(=O)(O)OP(=O)(O)OC[C@H]3O[C@@H](n4cnc5c(N)ncnc54)[C@H](O)[C@@H]3O)[C@@H](O)[C@H]2O)C=CC1; assay: KARI cuvette assay, purified Ec_IlvC^Q110A-his6; type: biochemical, E. coli
Experimental: as §1, §2

[5] = other: purified, acetolactate as substrate

For “Klebsiella pneumoniae propanediol dehydrogenase Kp_DhaT, SEQ ID NO: 63 (Klebsiella pneumoniae)”, the Km (CC(C)C=O; other: NADH as cofactor) was 1300 µM and the Km (CC(C)C=O; other: NADPH as cofactor) was 600 µM.

B1: E. coli KARI Ec_IlvC variant Ec_IlvC^Q110V-his6 (Q110V), SEQ ID NO: 23 (Escherichia coli K-12; Q110V) (protein)
chain: MANYFNTLNLRQQLAQLGKCRFMGRDEFADGASYLQGKKVVIVGCGAQGLNQGLNMRDSGLDISYALRKEAIAEKRASWRKATENGFKVGTYEELIPQADLVINLTPDKVHSDVVRTVQPLMKDGAALGYSHGFNIVEVGEQIRKDITVVMVAPKCPGTEVREEYKRGFGVPTLIAVHPENDPKGEGMAIAKAWAAATGGHRAGVLESSFVAEVKSDLMGEQTILCGMLQAGSLLCFDKLVEEGTDPAYAEKLIQFGWETITEALKQGGITLMMDRLSNPAKLRAYALSEQLKEIMAPLFQKHMDDIISGEFSSGMMADWANDDKKLLTWREETGKTAFETAPQYEGKIGEQEYFDKGVLMIAMVKAGVELAFETMVDSGIIEESAYYESLHELPLIANTIARKRLYEMNVVISDTAEYGNYLFSYACVPLLKPFMAELQPGDLGKAIPEGAVDNGQLRDVNEAIRSHAIEQVGKKLRGYMTDMKRIAVAGLEHHHHHH
With B1 the kcat/Km [1, 5] was 24800 M⁻¹ s⁻¹ and the kcat/Km ([1]; with NADH) was 569000 M⁻¹ s⁻¹.

B2: Drosophila melanogaster alcohol dehydrogenase Dm_Adh, SEQ ID NO: 61 (Drosophila melanogaster) (protein)
chain: MSFTLTNKNVIFVAGLGGIGLDTSKELLKRDLKNLVILDRIENPAAIAELKAINPKVTVTFYPYDVTVPIAETTKLLKTIFAQLKTVDVLINGAGILDDHQIERTIAVNYTGLVNTTTAILDFWDKRKGGPGGIICNIGSVTGFNAIYQVPVYSGTKAAVVNFTSSLAKLAPITGVTAYTVNPGITRTTLVHTFNSWLDVEPQVAEKLLAHPTQPSLACAENFVKAIELNQNGAIWKLDLGTLEAIQWTKHWDSGI
notes: clarified crude lysate
Molecule B2 has a Km ([2]; other: NADH as cofactor) of 900 µM and a Km ([2]; other: NADPH as cofactor) of 2700 µM.

B3: Escherichia coli propanediol dehydrogenase Ec_FucO, SEQ ID NO: 65 (Escherichia coli K-12) (protein)
chain: MMANRMILNETAWFGRGAVGALTDEVKRRGYQKALIVTDKTLVQCGVVAKVTDKMDAAGLAWAIYDGVVPNPTITVVKEGLGVFQNSGADYLIAIGGGSPQDTCKAIGIISNNPEFADVRSLEGLSPTNKPSVPILAIPTTAGTAAEVTINYVITDEEKRRKFVCVDPHDIPQVAFIDADMMDGMPPALKAATGVDALTHAIEGYITRGAWALTDALHIKAIEIIAGALRGSVAGDKDAGEEMALGQYVAGMGFSNVGLGLVHGMAHPLGAFYNTPHGVANAILLPHVMRYNADFTGEKYRDIARVMGVKVEGMSLEEARNAAVEAVFALNRDVGIPPHLRDVGVRKEDIPALAQAALDDVCTGGNPREATLEDIVELYHTAW
notes: clarified crude lysate
B3 showed a Km ([3]; other: NADH as cofactor) of 800 µM and a Km ([3]; other: NADPH as cofactor) of 200 µM.

B4: E. coli KARI Ec_IlvC variant Ec_IlvC^Q110A-his6 (Q110A), SEQ ID NO: 21 (Escherichia coli K-12; Q110A) (protein)
chain: MANYFNTLNLRQQLAQLGKCRFMGRDEFADGASYLQGKKVVIVGCGAQGLNQGLNMRDSGLDISYALRKEAIAEKRASWRKATENGFKVGTYEELIPQADLVINLTPDKAHSDVVRTVQPLMKDGAALGYSHGFNIVEVGEQIRKDITVVMVAPKCPGTEVREEYKRGFGVPTLIAVHPENDPKGEGMAIAKAWAAATGGHRAGVLESSFVAEVKSDLMGEQTILCGMLQAGSLLCFDKLVEEGTDPAYAEKLIQFGWETITEALKQGGITLMMDRLSNPAKLRAYALSEQLKEIMAPLFQKHMDDIISGEFSSGMMADWANDDKKLLTWREETGKTAFETAPQYEGKIGEQEYFDKGVLMIAMVKAGVELAFETMVDSGIIEESAYYESLHELPLIANTIARKRLYEMNVVISDTAEYGNYLFSYACVPLLKPFMAELQPGDLGKAIPEGAVDNGQLRDVNEAIRSHAIEQVGKKLRGYMTDMKRIAVAGLEHHHHH
B4 gave a kcat/Km [4, 5] of 11100 M⁻¹ s⁻¹ and a kcat/Km ([4]; with NADH) of 302000 M⁻¹ s⁻¹.

— patent US8097440B1, “Engineered microorganisms capable of producing target compounds under anaerobic conditions” (Gevo, Inc., priority 2008, dated 2012)
